One assay addresses human α-thrombin (human, UniProt P00734 328-622). The assay is described as follows: chromogenic substrate hydrolysis at varied substrate and PEBP-H6 concentrations, fitted to the equation for a competitive inhibitor. The protocol: (§1) Six different serine proteases were diluted in enzyme buffer (67 mM Tris, pH 8.0, 133 mM NaCl, 0.13% PEG-6000) and used in protease activity assays with the following final amounts: thrombin, trypsin and chymotrypsin, 0.005 pmol; t-PA and neuropsin, 0.5 pmol; and pancreatic elastase, 4 pmol. Human α-thrombin was prepared and according to Stone et al. (Stone, S. R. and Hofsteenge, J. (1986) Biochemistry 25, 46224628); all other proteases are commercially available (e.g., Sigma, Fluka). […] The pre-incubation was carried out in a 96-well plate for 30 min at 37° C. After addition of 10 μl chromogenic protease substrate (H-D-Ile-Pro-Arg-para-nitroanilide, Chromogenix, 1.25 mg/ml in H₂O for all proteases other than chymotrypsin; or N-Succinyl-Ala-Ala-Pro-Phe-para-nitroanilide, Sigma, 2.3 mg/ml in H₂O for chymotrypsin), any remaining amidolytic activity was determined by measuring the rate of hydrolysis of the chromogenic substrate at 405 nm over 30 min using a THERMOmax microplate reader (Molecular Devices). […]
(§2) To determine the inhibition constants, the rates for the hydrolysis of the chromogenic substrates were measured as described above at fixed enzyme concentrations and substrate concentrations ranging from 3.5 μM to 216 μM and PEBP-H6 concentrations between 0 and 2.9 μM. […]

The next assay concerns the target chymotrypsin. The description is as above. The protocol: as §1, §2

B1: PEBP-H6 (mouse PEBP with a stretch of six histidine residues fused to the carboxy-terminus) (other)
chain: AADISQWAGPLCLQEVDEPPQHALRVDYAGVTVDELGKVLTPTQVMNRPSSISWDGLDPGKLYTLVLTDPDAPSRKDPKFREWHHFLVVNMKGNDISSGTVLSDYVGSGPPSGTGLHRYVWLVYEQEQPLSCDEPILSNKSGDNRGKFKVETFRKKYNLGAPVAGTCYQAEWDDYVPKLYEQLSGKHHHHHH
notes: Expressed in Rat-1 cells and purified on Ni-NTA
For B1, the inhibitory constant (Ki) came out at 380 nM with human α-thrombin and 1800 nM in the assay with chymotrypsin.

Usually Ki stands for the equilibrium dissociation constant of an inhibitor or competing ligand from its target. The low end stands for a stronger hold on the target, the high end for a looser hold on the target.

The record behind these values is patent US20060177432A1 (Novartis, published 2006).
